The target in this experiment is ヒトVEGF (human) (UniProt P15692). The experiment can be described thus: cell-based or functional assay.
UniProt P15692, sequence (P15692 other isoform, or with tags, fused parts or gaps limits assumed): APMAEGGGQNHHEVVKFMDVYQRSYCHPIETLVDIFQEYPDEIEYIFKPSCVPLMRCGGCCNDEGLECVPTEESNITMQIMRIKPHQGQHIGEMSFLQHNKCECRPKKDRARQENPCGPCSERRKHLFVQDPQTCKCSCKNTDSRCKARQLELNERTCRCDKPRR

Substance VEGFR1−Fc−IL−1ra (Fc fusion) returned a EC50 (inhibition of VEGF-dependent HUVE cell proliferation, VEGF 10 ng/ml) of 15 ng/mL.

The values are drawn from JP2008515970A.
